In patent US7763418B2, “Detection of Rho proteins” (Cytoskeleton, Inc., priority 2005, dated 2010):

Experiments:
[1] = system: RhoA; assay: GST-Rhotekin-RBD pull-down assay of calpeptin treated HeLa cell lysates; type: cell-based; settings: calpeptin 30 minutes, 500 μg lysate
[2] = system: RhoA; assay: RhoA G-LISA of calpeptin treated HeLa cell lysates; type: cell-based; settings: calpeptin 30 minutes
Method: Active Rho protein (typically 7-15 μg total cell lysate or 1-5 ng of constitutively active recombinant protein) were either added directly to the effector bound G-LISA plate (Rac1 and Cdc42 G-LISAs) or diluted with an equal volume of Binding Buffer (20% PEG 8000, Sigma, St. Louis, Mo.) prior to adding to effector bound plates (RhoA G-LISA). The reactions were incubated for 30 minutes at 4° C. on a microtiter titer plate shaker after which wells were washed once with 200 μl of PBST (PBS pH 7.2, 0.05% Tween-20) and immediately treated with 200 μl of Antigen Presenting Buffer (1% trichloroacetic acid (TCA)) for 2-5 minutes at room temperature. Wells were then washed three times with 200 μl each of PBST and primary antibody is added typically at 1 μg/ml (RhoA specific), 0.25 μg/ml (Rac1 specific), 1 μg/ml (Cdc42 specific) and incubated at room temperature for 45 minutes (incubation at 4° C. gave similar results). […] After three washes each of 200 μl PBST the activated Rho proteins are detected using absorbance or luminescence detection as described below. […]
Referring to FIG. 10, 25 μl of serum starved or Calpeptin treated (RhoA activated) Hela cell lysate at concentration of 4, 2, 1, 0.5, 0.25, 0.12, 0.06 mg/ml were mixed with same volume of Binding Buffer and subjected to RhoA G-LISA assay followed by absorbance detection. […] All readings had buffer only background subtracted. […]

[3] = molecular target: T1, Rac1 (61L) (Homo sapiens, UniProt P63000, Q61L); assay: G-LISA on effector-GBD plates with constitutively active Rac1; type: binding; settings: 5 ng constitutively active Rac1; detection with the plate's GTPase specific antibody
T1 construct: His; purchased Cytoskeleton Inc. R6101
Method: (§1) Effector-GBD peptide (ROCK1, POSH or WASP, see Table 2) was diluted in coating buffer (PBS pH 7.2, plus 1 mM EDTA) to a final concentration 0.05 mg/ml and 5 μg of peptide was added to the wells of maleimide plates (Corning Inc., Catalog #2510). Plates were incubated at 21° C. for 2 hours, washed twice in PBS pH 7.2. Plates were blocked for 1 hour at room temperature with milk (typically 0.1-5%, depending upon effector-GBD). After two washes with PBS (pH 7.2), Lyophilization Buffer was added to each well (5% sucrose and 1% dextran) and the plates were lyophilized and stored desiccated at 4° C. […]
(§2) Active Rho protein (typically 7-15 μg total cell lysate or 1-5 ng of constitutively active recombinant protein) were either added directly to the effector bound G-LISA plate (Rac1 and Cdc42 G-LISAs) or diluted with an equal volume of Binding Buffer (20% PEG 8000, Sigma, St. Louis, Mo.) prior to adding to effector bound plates (RhoA G-LISA). […] After three washes each of 200 μl PBST the activated Rho proteins are detected using absorbance or luminescence detection as described below.
Referring to FIG. 2B, lysis buffer only (Blank), 5 ng of Rac1 (61L), or RhoA (63L) were subjected to a Rac1 G-LISA assay as detailed in materials and methods (Example 2), and Rac1 signal was detected by absorbance at 490 nm as described in materials and methods (Example 2). […]

[4] = molecular target: T2, RhoA (63L) (Homo sapiens, UniProt P61586, Q63L); assay: G-LISA on effector-GBD plates with constitutively active RhoA; type: binding; settings: 5 ng constitutively active RhoA; detection with the plate's GTPase specific antibody
T2 construct: purchased Cytoskeleton Inc. R6301
T2 sequence (P61586 whole entry Q63L): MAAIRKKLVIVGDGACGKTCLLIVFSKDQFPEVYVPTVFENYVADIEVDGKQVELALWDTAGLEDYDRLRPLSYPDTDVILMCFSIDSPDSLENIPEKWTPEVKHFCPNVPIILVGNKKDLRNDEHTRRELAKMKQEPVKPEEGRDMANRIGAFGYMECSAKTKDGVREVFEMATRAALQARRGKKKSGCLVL
Method: as §1, §2
Referring to FIG. 2A, lysis buffer only (Blank), 5 ng of RhoA (63L), Cdc42 (61L) or Rac1 (61L) were subjected to a RhoA G-LISA assay as detailed in materials and methods, and RhoA signal was detected by luminometry as described in materials and methods. […]

[5] = molecular target: Rac1 (Homo sapiens, UniProt P63000); settings: read-out: published affinity Rac1:PAK; cited from earlier work
[6] = molecular target: T3, Cdc42 (61L) (Homo sapiens, UniProt P60953, Q61L); assay: G-LISA on effector-GBD plates with constitutively active Cdc42; type: binding; settings: 5 ng constitutively active Cdc42; detection with the plate's GTPase specific antibody
T3 construct: His; purchased Cytoskeleton Inc. C6101
T3 sequence (P60953 whole entry Q61L): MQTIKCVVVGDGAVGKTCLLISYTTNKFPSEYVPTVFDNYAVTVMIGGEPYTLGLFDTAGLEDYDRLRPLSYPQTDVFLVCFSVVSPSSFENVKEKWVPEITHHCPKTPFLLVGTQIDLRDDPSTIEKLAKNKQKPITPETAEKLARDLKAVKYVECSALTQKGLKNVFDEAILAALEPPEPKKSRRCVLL
Method: as §1, §2
Referring to FIG. 2C, lysis buffer only (Blank), 5 ng of Cdc42 (61L) or Rac1 (61L) were subjected to a Cdc42 G-LISA assay as detailed in materials and methods (Example 2), and Cdc42 signal was detected by absorbance at 490 nm as described in materials and methods (Example 2).

CCCC[C@@H](C=O)NC(=O)[C@H](CC(C)C)NC(=O)OCc1ccccc1 [calpeptin]
RhoA fold activation above serum starved lysate, pull-down densitometry [1]: approximately 2 fold | RhoA fold activation versus serum starved, G-LISA ([2]; lysate 0.25 mg/ml to 2 mg/ml (6.25-50 μg)): approximately 2 fold | RhoA fold activation versus serum starved, G-LISA ([2]; lysate 4 mg/ml (100 μg)): 1.7 fold

B1: WASP: Histidine-tagged GBD of human WASP (amino acids 201-321), carboxy terminal cysteine, linked to maleimide plate (protein)
chain: DIQNPDITSSRYRGLPAPGPSPADKKRSGKKKISKADIGAPSGFKHVSHVGWDPQNGFDVNNLDPDLRSLFSRAGISEAQLTDAETSKLIYDFIEDQGGLEAVRQEMRRQEPLPPPPPPSRC
modifications: left off: small tags and cut ends
notes: Histidine-tagged GBD of human WASP (amino acids 201-321), carboxy terminal cysteine, linked to maleimide plate
G-LISA signal above background (buffer only) [3]: did not give a signal above background

B2: POSH: Histidine-tagged GBD of human POSH (amino acids 291-363) linked to maleimide plate (protein, UniProt Q7Z6J0 1-888, looked up)
E3 ubiquitin-protein ligase …: MDESALLDLLECPVCLERLDASAKVLPCQHTFCKRCLLGIVGSRNELRCPECRTLVGSGVEELPSNILLVRLLDGIKQRPWKPGPGGGSGTNCTNALRSQSSTVANCSSKDLQSSQGGQQPRVQSWSPPVRGIPQLPCAKALYNYEGKEPGDLKFSKGDIIILRRQVDENWYHGEVNGIHGFFPTNFVQIIKPLPQPPPQCKALYDFEVKDKEADKDCLPFAKDDVLTVIRRVDENWAEGMLADKIGIFPISYVEFNSAAKQLIEWDKPPVPGVDAGECSSAAAQSSTAPKHSDTKKNTKKRHSFTSLTMANKSSQASQNRHSMEISPPVLISSSNPTAAARISELSGLSCSAPSQVHISTTGLIVTPPPSSPVTTGPSFTFPSDVPYQAALGTLNPPLPPPPLLAATVLASTPPGATAAAAAAGMGPRPMAGSTDQIAHLRPQTRPSVYVAIYPYTPRKEDELELRKGEMFLVFERCQDGWFKGTSMHTSKIGVFPGNYVAPVTRAVTNASQAKVPMSTAGQTSRGVTMVSPSTAGGPAQKLQGNGVAGSPSVVPAAVVSAAHIQTSPQAKVLLHMTGQMTVNQARNAVRTVAAHNQERPTAAVTPIQVQNAAGLSPASVGLSHHSLASPQPAPLMPGSATHTAAISISRASAPLACAAAAPLTSPSITSASLEAEPSGRIVTVLPGLPTSPDSASSACGNSSATKPDKDSKKEKKGLLKLLSGASTKRKPRVSPPASPTLEVELGSAELPLQGAVGPELPPGGGHGRAGSCPVDGDGPVTTAVAGAALAQDAFHRKASSLDSAVPIAPPPRQACSSLGPVLNESRPVVCERHRVVVSYPPQSEAELELKEGDIVFVHKKREDGWFKGTLQRNGKTGLFPGSFVENI
G-LISA signal above background (buffer only) [4]: barely above background

B3: rhotekin-Cys: synthetic rhotekin-GBD, three internal cysteines replaced, cysteine at carboxy terminal (protein)
chain: ILEDLNMLYIRQMALSLEDTELQRKLDHEIRMRDGAEKLLAALSQREQALEATKSLLVSNSRILSYMGELQRRKEAQVLEKTGRRCS
G-LISA signal above background (buffer only) [4]: 6 fold

B4: PAK-GST: GST-tagged GTPase Binding Domain of human PAK1 (amino acids 68-151), Rac1/Cdc42 effector (protein)
chain: KEKERPEISLPSDFEHTIHVGFDAVTGEFTGMPEQWARLLQTSNITKSEQKKNPQAVLDVLEFYNSKKTSNSQKYMSFTDKSAEC
modifications: left off: a dimerising Fc or GST
Kd [5]: ~20 nM

B5: ROCK1-GBD: Histidine-tagged GBD of human ROCK1 (amino acids 847-1024), carboxy terminal cysteine, linked to maleimide plate (protein)
chain: EAEQYFSTLYKTQVKELKEEIEEKNRENLKKIQELQNEKETLATQLDLAETKAESEQLARGLLEEQYFELTQESKKAASRNRQEITDKDHTVSRLEEANSMLTKDIEILRRENEELTEKMKKAEEEYKLEKEEEISNLKAAFEKNINTERTLKTQAVNKLAEIMNRKDFKIDRKKANTC
modifications: left off: small tags and cut ends
G-LISA signal above background (buffer only) [6]: did not give a signal above background | G-LISA signal above background (buffer only) [3]: did not give a signal above background
